The series addresses T1, His-OsNAC2 (Oryza sativa, UniProt Q7XUV6 1-343).
T1 sequence: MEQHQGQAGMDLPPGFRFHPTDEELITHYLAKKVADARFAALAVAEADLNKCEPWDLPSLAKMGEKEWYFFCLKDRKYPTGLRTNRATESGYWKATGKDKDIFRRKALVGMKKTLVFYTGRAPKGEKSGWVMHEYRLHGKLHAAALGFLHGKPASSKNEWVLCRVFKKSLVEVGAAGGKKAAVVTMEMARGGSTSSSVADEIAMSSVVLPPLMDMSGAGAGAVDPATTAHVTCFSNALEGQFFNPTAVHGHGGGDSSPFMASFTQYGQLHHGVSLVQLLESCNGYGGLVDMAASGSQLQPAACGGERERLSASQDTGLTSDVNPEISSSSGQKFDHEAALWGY
Kind of series: EMSA. (A gel shift assay detects complexes by their altered migration in electrophoresis.)

The values below come from paper PMC11772321.

B1: probe-OsNAC2-59 (MITE in OsSCE1a promoter) (dsDNA)
DNA 1: TCCTTTGAGTCTATCTCTCTCATCCAATTCTTGTGTTTTTCCTGTGGTTCAATCAAACG
DNA 2: CGTTTGATTGAACCACAGGAAAAACACAAGAATTGGATGAGAGAGATAGACTCAAAGGA
In the case of B1, the binding result is on record as “binds”.
